Results published in patent US20220389085A1 (BIONOXX, published 2022).

Key:
[1] = molecular target: T1, protein A56 of the oncolytic virus OTS-412 (vaccinia virus (OTS-412), UniProt P08714 17-315); assay: flow cytometry, PC3 cells treated with OTS-412
T1 construct: also called OTS-412-A56; protein A56 variant
T1 chain: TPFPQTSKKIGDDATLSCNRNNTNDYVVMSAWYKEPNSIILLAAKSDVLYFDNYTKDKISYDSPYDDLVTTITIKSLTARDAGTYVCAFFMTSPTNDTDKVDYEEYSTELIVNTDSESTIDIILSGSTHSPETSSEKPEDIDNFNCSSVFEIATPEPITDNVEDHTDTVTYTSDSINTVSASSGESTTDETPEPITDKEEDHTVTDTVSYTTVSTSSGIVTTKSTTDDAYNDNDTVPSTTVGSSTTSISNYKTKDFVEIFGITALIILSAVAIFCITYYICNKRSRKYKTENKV

[2] = molecular target: T1, protein A56 of the oncolytic virus …; assay: flow cytometry, MCF7 cells treated with OTS-412
[3] = molecular target: T2, protein A56 of the oncolytic virus WOTS-418 (vaccinia virus (WOTS-418, Western …, UniProt Q01218 17-314)); assay: flow cytometry, PC3 cells treated with WOTS-418
T2 construct: also called WOTS-418-A56; protein A56 variant

[4] = molecular target: T2, protein A56 of the oncolytic virus …; assay: flow cytometry, MCF7 cells treated with WOTS-418
[5] = molecular target: T1, protein A56 of the oncolytic virus …; assay: flow cytometry, PC3 cells treated with OTS-412 (overlay, FIG. 74)
[6] = molecular target: T2, protein A56 of the oncolytic virus …; assay: flow cytometry, PC3 cells treated with WOTS-418 (overlay, FIG. 75)

B1: A56-02B08 (Ab16) (antibody, V domains shown)
VH: QVQLQQSGPGLVKPSQTLSLTCAISGDSVSSNSAAWNWIRQSPSRGLEWLGRTYYRSKWYNDYAVSVKSRITINPDTSKNQFSLQLNSVTAVDTAVYYCAKSYAGPISYYYYGLDVWGQGTTVTVSS
VL: QSALTQPASVSGSPGQSVTISCTGTSSDIGRYNLVSWYQQHPGKAPKLMIYGGSKRPSGVSNRFSGSNSDNTASLTISGLRAEDEADYYCSSYASSSTPYVFGTGTKVTVL
binding signal (flow cytometry, %) [1]: ≥ 70%
binding signal (flow cytometry, %) [2]: ≥ 80%
binding signal (flow cytometry, %) [3]: ≥ 70%
binding signal (flow cytometry, %) [4]: ≥ 80%
binding signal (flow cytometry, %) [5]: ≥ 60%
binding signal (flow cytometry, %) [6]: ≥ 60%
